Patent US20090143724A1, “Microprojection Array Immunization Patch and Method” (Alza Corporation, priority 2001, published 2009)

Legend:
[1] = test system: hairless guinea pigs (HGPs); assay: Immunization of hairless guinea pigs with OVA; anti-OVA IgG titers by ELISA; format: in vivo, hairless guinea pig; conditions: for Increase in antibody titer over non-adjuvant controls: about 1 μg OVA with 15 μg GMDP, one week after booster
Method: Baseline blood samples were obtained from all animals before the day of immunization. On the day of immunization, the HGPs were anesthetized and the treatment sites were cleaned with 70% isopropyl alcohol and allowed to dry. For immunizations performed by needle injection, OVA was dissolved in sterile water. Sterile 1-mL syringes with 25-gauge needles (Becton Dickinson, Franklin Lakes, N.J.) were used. ID and SC injections were performed on the dorsal-lateral area of HGPs. The quadriceps muscle of the hind leg was used for IM injection. Microprojection arrays containing dry-coated OVA were applied as described above.
Each HGP received a primary immunization (Day 0) followed by a secondary (i.e., booster) immunization 4 weeks later with an identical article. After primary immunization, HGPs were anesthetized and blood was collected from the anterior vena cava. The serum samples were evaluated by immunoassay for the presence of anti-OVA antibodies.
Sera from nonimmunized and immunized HGPs were tested for the presence of antibodies to OVA by enzyme-linked immunosorbent assay (ELISA). Briefly, 96-well polystyrene plates (Maxisorp, NUNC, Rochester, N.Y.) were coated with 0.1 muwell of OVA (10 μg/mL in 0.2 M Na bicarbonate/carbonate buffer, pH 9.6) and incubated overnight at 4° C. The plates were washed with PBS-Tween buffer then blocked with 200 μL of PBS/casein (0.5%)/Tween-20 (0.05%) buffer for 1 hour at room temperature. Then the plates were again washed and the test sera were added (100 μL/well at 2- to 5-fold serial dilutions, three replicates, 1 hour at room temperature). After washing, 100 μL peroxidase conjugated goat anti-guinea pig IgG antibody (Jackson ImmunoResearch Laboratories, West Grove, Pa.) was added and incubated for 1 hour at room temperature. After incubation, the plates were washed, 100 μL of substrate (ABTS, Becton Dickinson, Franklin Lakes, N.J.) was added, and they were incubated for 35 minutes at room temperature. Absorbance ([…]) was measured using a SpectraMAX 250 (Molecular Devices Corporation, Sunnyvale, Calif.). The results are expressed as endpoint antibody titers relative to nonimmunized control sera samples.
Results are presented as the mean with its associated standard error of the mean. Comparison between groups was performed by analysis of variance (ANOVA).

[2] = OVA delivery into hairless guinea pig skin from dry-coated microprojection arrays (skin biopsy fluorometry); format: in vivo; conditions: for Amount of ovalbumin delivered: 2 cm^2 array applied 5 seconds on HGP skin, n=3, mean ± SEM; for OVA delivered into the skin: 2 cm^2 device coated with 20% OVA solution
From the text: The treatment sites (lateral area of the thorax) of anesthetized HGPs were cleaned with isopropyl alcohol wipes (70%) and allowed to dry. The skin site was lightly stretched manually when the system was applied using an impact applicator. Following application, the stretching tension was released and the system was left on the skin for the specified period of time. For devices left on skin for more than 5 seconds, the HGPs were wrapped with Vetwrap® (3M, St Paul, Minn.) and individually housed.
Each HGP received a dry-coated FITC-OVA microprojection array, which was applied as described above. Following system removal, the treated skin sites were thoroughly washed with 70% isopropyl alcohol to remove any residual OVA on the skin surface. The HGPs were euthanized and 8-mm skin biopsies were taken. Each tissue sample was placed in a scintillation vial with 0.1 mL deionized water. Hyamine hydroxide (0.9 mL, 1 M in methanol, JT Baker, Phillipsburg, N.J.) was then added, and the samples were incubated overnight at 60° C. Thereafter, the dissolved material was further diluted with 2 mL hyamine hydroxide/water (9:1), and fluorescence was quantitated by fluorometry and compared to known standards. Background control samples included untreated skin. A minimum replicate of three was used for each experimental condition.

hairless guinea pigs = assay: Example 2: immunization with tip-coated arrays; anti-ovalbumin IgG titer by ELISA; format: in vivo, hairless guinea pig; conditions: tip-coated array patch, 5 seconds wearing; two and three weeks after primary immunization; six animals
Method: Identical microprojection arrays were coated with untagged ovalbumin using a similar methodology. The amount of protein coated on the arrays was evaluated by total protein assay. The target dose of 5 μg of ovalbumin (OVA) was coated with acceptable reproducibility (4.6±0.5 μg) using a 20 wt % OVA coating solution. Immunization studies were conducted with these arrays in one group of six hairless guinea pigs. Systems and system application in animals was the same as described above except that the wearing time in all guinea pigs was 5 seconds. Three additional groups of animals received intradermal injections of 0.1, 1.0, and 10 μg ovalbumin. Blood samples were taken at various time intervals and evaluated for antibody (IgG) titer against ovalbumin by ELISA.

[3] = Example 2: ovalbumin delivery into hairless guinea pig skin from tip-coated arrays; format: in vivo; conditions: for Delivery efficiency: tip-coated arrays
From the text: Some of these microprojection arrays were applied to hairless guinea pigs (three animals per group) for evaluation of ovalbumin delivery into the skin. The skin of the animal flank was stretched manually bilaterally ( ? and ? ) at the time of application of the system. […] The system applied comprised an ovalbumin coated microprojection array, adhered to the center of a low density polyethylene film backing with an acrylate adhesive (7 cm^2 disc). Following application, the stretching tension was released and the system was removed after 5 seconds or 1 hour contact with the skin. Following removal of the system, residual drug was thoroughly washed from the skin and an 8 mm skin biopsy was taken at the location of the application. The total amount of ovalbumin delivered in the skin was determined by dissolving the skin biopsy in hyamine hydroxide (1M in methanol). Quantitation was performed by fluorimetry. […] Delivery efficiency was also found to be relatively independent of the thickness of the coating.

[4] = 1 μg OVA, 1 week after booster immunization

CC(=O)NC1C(OC2C(CO)OC(O)C(NC(C)=O)C2OC(C)C(=O)N[C@@H](C)C(=O)N[C@H](CCC(N)=O)C(=O)O)OC(CO)C(O)C1O (stereo partly drawn) [GMDP, N-acetylglucosamine-(β1-4)-N-acetylmuramyl-L-alanyl-D-glutamine, reference compound]
Antibody titers with arrays delivering GMDP and OVA versus OVA alone (dose-sparing) ([1]; 1 μg OVA with about 15 μg GMDP by microprojection array): approached the titer levels achieved with OVA doses of 20 μg or greater in the absence of GMDP | Increase in antibody titer over non-adjuvant controls ([1]; ID administration): 250% | Increase in antibody titer over non-adjuvant controls ([1]; microprojection array administration): 1300% | Effect of the adjuvant on the amount of OVA delivered ([2]; OVA and GMDP dry-coated arrays, data not shown): did not significantly affect the amount of OVA delivered

ovalbumin [model protein antigen (Grade V, SIGMA); FITC-labeled form used for coating and delivery quantitation]
Antibody level, microprojection array relative to IM injection [1, 4]: 50 fold | Antibody level, microprojection array relative to SC injection [1, 4]: 10 fold | Antibody titer, microprojection array relative to IM needle administration ([1]; 5 μg OVA, 1 week after booster immunization): 24 fold | Antibody response, microprojection array relative to subcutaneous or intramuscular administration ([1]; 1 and 5 μg doses of OVA): up to 50 fold | Antibody response, microprojection array versus intradermal administration ([1]; 1 and 5 μg doses of OVA): equivalent | Antibody titers, microprojection array versus conventional ID, SC or IM injection ([1]; 20 or 80 μg OVA, 1 week after booster immunization): comparable | Development of anti-ovalbumin IgG antibodies (hairless guinea pigs): all animals dosed with the microprojection array patch had developed anti-ovalbumin IgG antibodies

B1: ovalbumin (protein, UniProt P01012 2-386, looked up)
Ovalbumin: GSIGAASMEFCFDVFKELKVHHANENIFYCPIAIMSALAMVYLGAKDSTRTQINKVVRFDKLPGFGDSIEAQCGTSVNVHSSLRDILNQITKPNDVYSFSLASRLYAEERYPILPEYLQCVKELYRGGLEPINFQTAADQARELINSWVESQTNGIIRNVLQPSSVDSQTAMVLVNAIVFKGLWEKAFKDEDTQAMPFRVTEQESKPVQMMYQIGLFRVASMASEKMKILELPFASGTMSMLVLLPDEVSGLEQLESIINFEKLTEWTSSNVMEERKIKVYLPRMKMEEKYNLTSVLMAMGITDVFSSSANLSGISSAESLKISQAVHAAHAEINEAGREVVGSAEAGVDAASVSEEFRADHPFLFCIKHIATNAVLFFGRCVSP
modifications: FITC label (in one form)
notes: model protein antigen (Grade V, SIGMA); FITC-labeled form used for coating and delivery quantitation
Seroconversion after primary immunization ([1]; 20 or 80 μg OVA by microprojection array, 2 weeks after primary immunization): seroconverted by 2 weeks after the primary immunization | Seroconversion after booster immunization ([1]; OVA by microprojection array, all doses tested (1, 5, 20, 80 μg)): All animals had seroconverted | Amount of ovalbumin delivered ([2]; 1% coating concentration): about 1 μg/cm^2 | Amount of ovalbumin delivered ([2]; 1% coating concentration, listed as Ovalbumin): 0.9 ± 0.1 μg/cm^2 | OVA delivered into the skin ([2]; 30 minute application): 50 µg | OVA delivered into the skin ([2]; 1 hour application): approximately 80 μg | Amount of ovalbumin delivered ([2]; 5% coating concentration): ~6 μg/cm^2 | Amount of ovalbumin delivered ([2]; 5% coating concentration, listed as Ovalbumin): 5.8 ± 1.4 μg/cm^2 | Amount of ovalbumin delivered ([2]; 20% coating concentration): ~10 μg/cm^2 | Amount of ovalbumin delivered ([2]; 20% coating concentration, listed as Ovalbumin): 9.9 ± 0.6 μg/cm^2 | Approximate dose delivered ([2]; Delivery condition I: 1% coating, wearing time 5 seconds, surface area 1 cm^2): ~1 µg | Approximate dose delivered ([2]; Delivery condition II: 5% coating, wearing time 5 seconds, surface area 1 cm^2): ~5 µg | Approximate dose delivered ([2]; Delivery condition III: 20% coating, wearing time 5 seconds, surface area 2 cm^2): ~20 µg | Approximate dose delivered ([2]; Delivery condition IV: 20% coating, wearing time 3600 seconds, surface area 2 cm^2): ~80 µg | OVA delivered from arrays dry-coated with OVA and GMDP ([2]; array coated from OVA (1%) and GMDP (10%)): approximately 1 μg | OVA delivered into hairless guinea pig skin ([3]; tip-coated 2 cm^2 arrays, 5 second or 1 hour wearing): up to 4.5 μg | Delivery efficiency ([3]; 5 second wearing time): higher than 55% | Delivery efficiency ([3]; 1 hour wearing time): > 85%
